Experimental data from publication PMC3375335, “The Interdomain Linker of AAV-2 Rep68 Is an Integral Part of Its Oligomerization Domain: Role of a Conserved SF3 Helicase Residue in Oligomerization” (PLoS Pathogens, 2012).
Read-outs that look alike come from different tables or passages of the source.

What was measured:
[1] = molecular target: T1, Rep68ΔN209 (Adeno-associated virus 2 Srivastava/1982, UniProt P03132); assay type: binding; details: 36 µM protein, 200 mM NaCl, pH 8.0, 20 °C
T1 construct: gene Rep68; residues 210-536, part of linker plus helicase domain; pET-15b, E. coli BL21(DE3)

[2] = molecular target: T2, Rep68ΔN200 (Adeno-associated virus 2 Srivastava/1982, UniProt P03132); assay type: binding; details: 36 µM protein, 200 mM NaCl, pH 8.0, 20 °C
T2 construct: gene Rep68; Rep68 without the OBD: full interdomain linker plus helicase domain, to residue 536; start 201 read from the name; pET-15b, E. coli BL21(DE3); also printed Rep68Δ200, RepΔN200

[3] = molecular target: OBD-linker (residues 1-224) of AAV-2 Rep68 (adeno-associated virus 2 (AAV-2)) (UniProt P03132); experiment: AUC; sedimentation velocity without nucleotide, 40,000 rpm, 20°C, 25 mM Tris-HCl pH 8.0, 200 mM NaCl, 2 mM TCEP; c(s) by sedfit; constants from a global fit (sedphat) to a monomer-dimer model: dimer to monomers
[4] = molecular target: Rep68Y224A (adeno-associated virus 2 (AAV-2)) (UniProt P03132); experiment: AUC
[5] = molecular target: Rep68ΔN200 (adeno-associated virus 2 (AAV-2)) (UniProt P03132); experiment: cross-linking; DMP (dimethyl pimelimidate), 30 fold molar excess, 60 min at room temperature, protein 2 mg/ml, 25 mM HEPES, 200 mM NaCl, pH 8.0; 8% SDS-PAGE
[6] = molecular target: Rep68ΔN200 (adeno-associated virus 2 (AAV-2)) (UniProt P03132); experiment: AUC
[7] = molecular target: Rep68ΔN200 (adeno-associated virus 2 (AAV-2)) (UniProt P03132); experiment: AUC; sedimentation velocity without nucleotide, 40,000 rpm, 20°C, 25 mM Tris-HCl pH 8.0, 200 mM NaCl, 2 mM TCEP; c(s) by sedfit; constants from a global fit (sedphat) to a monomer-dimer model: dimer to monomers
[8] = molecular target: Rep68ΔN209 (adeno-associated virus 2 (AAV-2)) (UniProt P03132); experiment: AUC
[9] = molecular target: Rep68ΔN214 (adeno-associated virus 2 (AAV-2)) (UniProt P03132); experiment: AUC
[10] = molecular target: T3, AAV-2 Rep40 (adeno-associated virus 2 (AAV-2), UniProt P03132 225-536); experiment: AUC; sedimentation velocity without nucleotide, 40,000 rpm, 20°C, 25 mM Tris-HCl pH 8.0, 200 mM NaCl, 2 mM TCEP; c(s) by sedfit; constants from a global fit (sedphat) to a monomer-dimer model: dimer to monomers; details: both partners purified
[11] = molecular target: T3, AAV-2 Rep40; experiment: as above; details: both partners purified; remark: listed apart in the source

## Nc1ncnc2c1ncn2[C@@H]1O[C@H](COP(=O)(O)OP(=O)(O)O)[C@@H](O)[C@H]1O [ADP]
[1]; 5 mM ADP
  sedimentation velocity ultracentrifugation, nucleotide-induced oligomerization: ADP produces two main populations sedimenting at ∼3S and ∼7S
[2]; 5 mM ADP
  sedimentation velocity ultracentrifugation, nucleotide-induced oligomerization: ADP produces two main populations sedimenting at ∼3S and ∼7S

## Nc1ncnc2c1ncn2[C@@H]1O[C@H](COP(=O)(O)OP(=O)(O)OP(=O)(O)O)[C@@H](O)[C@H]1O [ATP]
[1]; 5 mM ATP
  sedimentation velocity ultracentrifugation, nucleotide-induced oligomerization: ATP on the other hand, seems to generate more stable species at ∼7S
[2]; 5 mM ATP
  sedimentation velocity ultracentrifugation, nucleotide-induced oligomerization: ATP on the other hand, seems to generate more stable species at ∼7S

## OBD-linker (residues 1-224) of AAV-2 Rep68 (from UniProt P03132 1-224) (domain or fragment)
[3]
  stoichiometry N: 2

## Rep68Y224A (from UniProt P03132 1-536) (natural protein)
[4]
  stoichiometry N: 2

## Rep68ΔN200 (from UniProt P03132 201-536) (domain or fragment)
[5]
  stoichiometry N: 2
[6]
  stoichiometry N: 2
[7]
  Kd: 79 µM
  logKa: 4.1
  stoichiometry N: 2

## Rep68ΔN209 (from UniProt P03132 210-536) (domain or fragment)
[8]
  stoichiometry N: 2

## Rep68ΔN214 (from UniProt P03132 215-536) (domain or fragment)
[9]
  stoichiometry N: 2

B1: AAV-2 Rep40 (natural protein)
chain: MELVGWLVDKGITSEKQWIQEDQASYISFNAASNSRSQIKAALDNAGKIMSLTKTAPDYLVGQQPVEDISSNRIYKILELNGYDPQYAASVFLGWATKKFGKRNTIWLFGPATTGKTNIAEAIAHTVPFYGCVNWTNENFPFNDCVDKMVIWWEEGKMTAKVVESAKAILGGSKVRVDQKCKSSAQIDPTPVIVTSNTNMCAVIDGNSTTFEHQQPLQDRMFKFELTRRLDHDFGKVTKQEVKDFFRWAKDHVVEVEHEFYVKKGGAKKRPAPSDADISEPKRVRESVAQPSTSDAEASINYADRLARGHSL
modifications: Start at 225 follows from the text; the C-terminus of the assayed Rep40 is not given, so full-length Rep40 (to 536) is taken; 225-490 is given only for the crystal structure 1S9H. ATP or ADP added …
[10]
  stoichiometry N: 2
[11]
  Kd: 730 µM
